# Test results: US20220218001A1, “REDOX ENZYMES IN ANIMAL FEED COMPOSITIONS” (Novozymes A/S, priority 2019, published 2022)
# B1: CAT: catalase feed enzyme: SEQ ID NO 7 in Examples 1-2; in Example 4 probably treatment 6 (Product C, SEQ ID NO 250) (protein)
# chain: MRHFWLLPAVAGIAGAQCPYLSGEMSFTQEQDNAGDTIEVTEQTIDNTLYVNDTGSYMTTDFGTPISDQYSLKAGRRGPTLLEDFIFRQKLQRFDHERVPERVVHARGAGAYGTFKSYADWSNVTAADFLSANEKETPMFCRFSTVVGFRGSVDTARDVHGHACRFYTDEGNYDIVGINFAPFFIQDAIQFPDLVHAIKPMPNNEIPQAATAHTSAWDFFSQQSTALHSALWLMSGNGIPRSFRHMNGYGVHSFRFVAANGTSKVVRYRWKSQQGVASLVWEEAQAAAGKNSDYHRQDLYNAIANGHYPKYELQAQIMDEADMLRFGFDLLDPTKLVPEEVVPYTPLGMMELNANPTNYFAEVEQAGFQPGHVVPGIDFTDDPLLQGRLFSYLDTQLTRHGGPNFEQIPVNRPRKPVHNNNRDGFGQQQIPTNNWAYTPNTMSNGYPMQANQTHGHGFFTSPYRYASGHLIREPSPTFHDHWSQPAMFWNSLIPAEQQMVVNAIVFENSKVNSPHVRKNVVNQLNMVNNNLAVRVARGLGLDEPSPNPTYYTSNKTSNVGTFGKPLLSIEGLQVGFLASNSHPESIKQGQAMAAQFSAAGVDLNIVTEAYADGVNTTYALSDAIDFDALIIADGVQSLFASPSLANQMNSTATSTLYPPARPYQILVDSFRYGKPVAAVGSGSAALKNAGIDTSRSGVYTGSSETTENIAKEVLKGLYTFRFVDRFALDE
# modifications: Aspergillus niger; mat_peptide (1)..(740)
# Legend:
# [1] = Gastric stability assay of SODs; format: in vitro ADME; conditions: 37° C., reference activity at pH7.0 without stress
# Protocol: Gastric stability was assayed with artificial gastric juice as stress condition. 20 μl SOD with appropriate dilution was added into 180 μl stress buffer (100 mM NaCl, 0.0013M HCl at pH3.0). The stress buffer with pepsin was prepared by adding 1.11 mg/ml pepsin (from porcine gastric mucosa, P7000, Sigma, 474 U/mg). The mixture was incubated at 37° C. in thermomixer for 0, 15, 30, 45, 60, 90, and 120 minutes separately. 10 μl sample extracted from the mixture was added into 90 μl activity buffer (K2HPO4/KH2PO4 mixed with final concentration of 100 mM PBS at pH7.0) as stop mixture. Then 20 μl stop mixture was added into 200 μl WST solution (or CytoC solution at pH7.8), and finally 20 μl coupled enzyme solution from kit was added to measure absorbance. The absorbance was measured at 450 nm for Sigma SOD kit (or 550 nm at pH 7.8) for 20 minutes at 37° C. (interval 40 sec, shake before first read). The activity at pH7.0 without stress condition was set as reference, and the residual activity at stress condition (pH3.0, pH3.0+pepsin) compared with reference was calculated as relative stability.
# [2] = commercial SODs from Sigma set as specific activity reference; cited from earlier work
# [3] = Nutritional model in piglets: growth performance (FCR); format: in vivo; conditions: d 0-42, piglets, vs NC (22% CP)
# Protocol: Experimental Unit: Slatted Floor Pens, 4 piglets per pen (2 barrows & 2 gilts per pen)
# Feed Type: Starter (Day 0-21) and Grower (Day 21-42). MASH feed is employed, using a corn-soybean type commercial ration formulation with an increase of 5-6% crude protein compared to normal commercial rations. Test material is added to the feed beginning on Day 0 and continuing through Day 42.
# Replication/piglets per treatment: Treatments 1-8 fed to 12 replicates each of 4 piglets (2 barrows+2 gilts) per replicate.
# Piglet Source: Piglets (post-weaned, at 21 days of age, called Day 0) are collected in early am (day of placement or Day 0), weighed (2 barrows & 2 gilts per pen), and assigned to each experimental pen. Each piglet is weighed individually and assigned to a pen, with very high and very low body weights excluded from the study. After all piglets are assigned to a pen, the body weights are checked to ensure no treatment is more than 1 standard deviation from another treatment.
# [4] = test system: genes related to oxidative stress; test: Oxidative stress PCR array in duodenum and ileum of weaned piglets; format: in vivo; conditions: duodenum, day 42, vs control group, p=0.019
# Protocol: The objective of this study was to evaluate anti-oxidant enzymes supplementation (SOD and CAT) alone and in combination in early weaned piglets, and if these enzymes can potentially alleviate the oxidative stress impact on weaned piglets and consequently improve the growth performance. In the in vivo trial (example 3), plasma samples were collected at day 0 (baseline, weaning moment), day 14 and day 42 of the study for additional analysis. […]
# Total RNA was extracted from tissues (stored at −20° C. in RNA later) by lysing tissue with FastPrep® 24 (MP Biomedicals, Illkirch, France), using the phenol-chloroform method (TRIzol reagent; Invitrogen, Invitrogen, Cergy Pontoise, France) followed by purification using RNeasy columns by automated method with the Qiacube HT (Qiagen, Courtaboeuf, France). The concentration of RNA was measured by NanoDrop ND-1000 Spectrophotometer (Thermo Fisher Scientific, Illkirch, France) and the purity was estimated by A260/A280 ratio. RNA integrity was assessed by using the Agilent 2100 Bioanalyzer (Agilent Technologies, Basel, Switzerland). The threshold of the RNA Integrity Number (RIN) was set at 7.5 to validate sufficient quality of the RNAs. […]
# (§1) ANOVA was performed for plasmatic parameters and student test was calculated to evaluate the significance of the differences observed in gene expression.
# [5] = test system: reactive oxygen metabolites (ROM) and Plasma antioxidant capability (PAT); test: Oxidative stress index FRAS5 (d-ROM, PAT) in plasma; format: in vivo, piglets; conditions: piglet plasma
# Protocol: An oxidative stress index was calculated as the ratio of reactive oxygen metabolites (ROM) and Plasma antioxidant capability (PAT) determined in plasma and liver lysate samples. ROM and
# PAT were analyzed using commercially methods (d-ROM fast test and PAT test) on FRAS5 instrument (Innovatics Laboratory, Philadelphia, USA). For d-ROM test, 10 μL of sample was mixed with an acidic buffer. Then, a chromogen was added, and measured photometrically at 505 nm. The results are expressed in UCarr (1 UCarr=0.08 mg of H2O2/dl). For PAT test, 10 μl of sample was added in a colored solution (mix of source ferric ions and chromogen). The intensity of chromatic change was measured at 505 nm. The results are expressed in UCor (1 UCor=1.4 μM of Vitamin C equivalent). The oxidative stress index was calculated as the ratio of d-ROMs test value to PAT test value.
# as §1
# Glutathione peroxidase = test: Plasma GPx activity (GPx determination KIT); format: in vivo; conditions: piglets, day 42
# Protocol: The concentration of total proteins was determined in liver lysate and plasma, using the Pierce™ BCA Protein Assay Kit (Thermo Fisher Scientific, Illkirch-Graffenstaden, France). The samples were processed following the supplier's recommendations. Plasma samples were diluted 100 times. 25 μL of standards or samples were added to 200 μL of working reagent and incubated 30 minutes at 37° C. The colorimetric intensity was measured at 562 nm. Results are expressed in μg of total protein per mL of sample.
# The activity of the Glutathione peroxidase was determined using the GPx determination KIT (abcamab102530). Briefly, 40 μL of the colorimetric reaction mix was added to 100 μL of standards and 10 μL of cumene hydroperoxide was added to the standards and to the 50 μL of samples (Plasma samples were adjusted to bring 600 μg of total protein in the reaction). The absorbance at 340 nm was measured (A1), and after 5 min at 25° C., a second measurement was done (A2).
# The GPx activity was calculated as follow:
# B=NADPH amount that was decreased between T1 and T2 (in nmol).
# T1=Time of the first reading (A1) (minutes).
# T2=Time of second reading (A2) (minutes).
# V=Pretreated sample volume added into the reaction well (mL).
# D=Sample dilution factor.
# as §1
plasma GPx activity (Glutathione peroxidase),Molecule,"Gastric stability: pH 3, +pepsin 15 min - residual activity value % ([1]; 15 min) [%]","Gastric stability: pH 3, +pepsin 30 min - residual activity value % ([1]; 30 min) [%]",SOD specific activity (reference) [2] [U/mg EP],FCR [3],GPX1 gene fold change [4],reactive oxygen metabolites (d-ROM) ([5]; both time point (day 14 and 42)),"plasmatic antioxidant capacity (PAT) ([5]; day 14, p<0.0001 between groups)"
,r E. coli: commercial Sigma SOD; probably recombinant SOD bovine expressed in Escherichia coli (S9697),43,43,6108,,,,
significant increase,B1,,,,significantly better than NC,1.34,increase,increase
